The source of these data is patent publication US20220213181A1 (Novartis, published 2022).

The target of experiment [1] is T1, Rat ANGPTL4(24-405)-FLAG-His6-Avi (rat, UniProt Q6TMA8 24-405, biotin on the C-terminal Avi tag (BirA) where the protein is immobilised).
T1 sequence: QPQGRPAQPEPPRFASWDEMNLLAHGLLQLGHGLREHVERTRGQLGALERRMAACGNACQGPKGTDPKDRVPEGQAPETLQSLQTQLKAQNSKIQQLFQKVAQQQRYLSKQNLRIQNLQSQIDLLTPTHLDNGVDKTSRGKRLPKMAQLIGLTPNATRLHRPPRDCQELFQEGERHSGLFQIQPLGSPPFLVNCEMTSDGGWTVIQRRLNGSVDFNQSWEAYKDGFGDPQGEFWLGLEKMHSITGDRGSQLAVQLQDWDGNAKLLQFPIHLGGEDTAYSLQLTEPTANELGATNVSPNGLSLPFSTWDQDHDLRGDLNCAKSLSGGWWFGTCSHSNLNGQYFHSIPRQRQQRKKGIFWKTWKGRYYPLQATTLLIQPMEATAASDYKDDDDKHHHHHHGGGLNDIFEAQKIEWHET
The experiment is described as follows: Octet (ForteBio) kinetics, biotinylated antigen on streptavidin sensor, IgG in solution; Octet kinetics, rat ANGPTL4 on the sensor, antibody up to 25 nM; run 1.

The target of experiment [2] is T2, Human ANGPTL4(26-406)-FLAG-His6-Avi (human, UniProt Q9BY76 24-406, biotin on the C-terminal Avi tag (BirA) where the protein is immobilised).
T2 construct: the text calls it 20 amino acids), then QP, ANGPTL4 26-406 and FLAG-His6-Avi; the signal peptide is left out here; also called full length human ANGPTL4; hANGPTL4
T2 sequence: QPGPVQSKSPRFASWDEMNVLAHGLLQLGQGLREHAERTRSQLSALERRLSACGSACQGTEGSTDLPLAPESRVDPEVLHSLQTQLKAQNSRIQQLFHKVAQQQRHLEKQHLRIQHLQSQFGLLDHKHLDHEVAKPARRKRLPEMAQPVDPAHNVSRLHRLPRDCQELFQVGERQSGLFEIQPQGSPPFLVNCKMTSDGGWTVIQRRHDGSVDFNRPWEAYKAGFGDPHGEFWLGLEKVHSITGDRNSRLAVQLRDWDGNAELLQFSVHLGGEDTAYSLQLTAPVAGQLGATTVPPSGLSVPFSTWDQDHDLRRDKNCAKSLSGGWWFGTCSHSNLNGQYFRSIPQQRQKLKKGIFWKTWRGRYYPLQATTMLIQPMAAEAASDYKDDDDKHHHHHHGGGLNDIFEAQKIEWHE
The experiment is described as follows: Octet (ForteBio) kinetics, biotinylated antigen on streptavidin sensor, IgG in solution; slower than the limit of detection (about 5e-6 s^-1). How it is done:
Dissociation constants (KD) were determined for selected antibodies of the invention by using an Octet (ForteBio) kinetic binding assay. ForteBio 10× Kinetics Buffer (ForteBio, catalog number 18-5032) was diluted 10-fold with DPBS (Life Technologies, catalog number 14190-136), and the resulting solution was added (0.2 ml per well) to a 96-well plate (Greiner, catalog number 65520). Streptavidin sensors (ForteBio, catalog number 18-5020) were immersed in the solution and equilibrated for at least 10 min at room temperature. In a second 96-well plate (Greiner, catalog number 65520), sensors were washed in 1× Kinetics buffer, and then immersed in 200 ul of 25 nM biotinylated human ANGPTL4 or a biotinylated reference protein (for background subtraction) for 1000 sec at […] room temperature. […] The sensors were then transferred to a well containing 200 μl 1× Kinetics buffer, and antibody dissociation was monitored for 1200 seconds. Background-corrected association and dissociation curves were globally fitted by Octet Software (ForteBio) to generate association (kₐ) and dissociation (kd) rate constants, which in turn were used to calculate equilibrium dissociation constants (KD).

B1: NEG276-LALA (antibody, human IgG1, kappa, L234A L235A)
heavy: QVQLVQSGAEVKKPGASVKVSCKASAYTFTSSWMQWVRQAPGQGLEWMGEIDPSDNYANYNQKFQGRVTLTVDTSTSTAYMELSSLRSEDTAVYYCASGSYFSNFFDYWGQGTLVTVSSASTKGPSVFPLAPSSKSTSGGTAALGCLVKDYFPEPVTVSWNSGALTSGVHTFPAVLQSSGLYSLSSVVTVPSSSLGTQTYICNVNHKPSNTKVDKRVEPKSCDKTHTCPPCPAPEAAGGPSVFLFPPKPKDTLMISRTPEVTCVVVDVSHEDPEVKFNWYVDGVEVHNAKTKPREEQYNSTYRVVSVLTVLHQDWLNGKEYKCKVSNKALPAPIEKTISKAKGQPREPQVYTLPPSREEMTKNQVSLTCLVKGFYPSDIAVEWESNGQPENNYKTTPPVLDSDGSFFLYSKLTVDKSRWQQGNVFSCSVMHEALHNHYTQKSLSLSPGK
light: EIVMTQSPATLSVSPGERATLSCKASQDIGSNLNWLQQKPGQAPRRLIYAVSNRGPGIPARFSGSRSGSEYTLTISSLQSEDFAVYYCLQYASSPWTFGQGTKVEIKRTVAAPSVFIFPPSDEQLKSGTASVVCLLNNFYPREAKVQWKVDNALQSGNSQESVTEQDSKDSTYSLSSTLTLSKADYEKHKVYACEVTHQGLSSPVTKSFNRGEC
Take B1: in experiment [1], the Kd turned out to be 7.47 nM, the koff was determined as 0.0012 s⁻¹ and the kon worked out at 160000 M⁻¹ s⁻¹.

B2: NEG278 (antibody, human IgG1, kappa, V domains shown)
VH: QVQLVQSGAEVKKPGASVKVSCKASAYTFTSSWMQWVRQAPGQGLEWMGEIDPSDNYANYNQKFQGRVTLTVDTSTSTAYMELSSLRSEDTAVYYCASGSYFSNFFDYWGQGTLVTVSS
VL: EIVMTQSPATLSVSPGERATLSCKASQDIGSNLNWLQQKPGQAPRRLIYAASVREPGIPARFSGSRSGSEYTLTISSLQSEDFAVYYCLQYASSPWTFGQGTKVEIKR
notes: humanized, hIgG1/kappa, parental antibody 19C16
Take B2: the koff in experiment [2] was determined as 6.7e-07 s⁻¹.
